Assays:
Test in all cases: RIA, competition with 125I-Ang-(1-12)
[1] = target: T1, purified human angiotensinogen (AGT) protein (human, UniProt P01019 25-476)
T1 construct: also called human AGT
T1 sequence (looked up): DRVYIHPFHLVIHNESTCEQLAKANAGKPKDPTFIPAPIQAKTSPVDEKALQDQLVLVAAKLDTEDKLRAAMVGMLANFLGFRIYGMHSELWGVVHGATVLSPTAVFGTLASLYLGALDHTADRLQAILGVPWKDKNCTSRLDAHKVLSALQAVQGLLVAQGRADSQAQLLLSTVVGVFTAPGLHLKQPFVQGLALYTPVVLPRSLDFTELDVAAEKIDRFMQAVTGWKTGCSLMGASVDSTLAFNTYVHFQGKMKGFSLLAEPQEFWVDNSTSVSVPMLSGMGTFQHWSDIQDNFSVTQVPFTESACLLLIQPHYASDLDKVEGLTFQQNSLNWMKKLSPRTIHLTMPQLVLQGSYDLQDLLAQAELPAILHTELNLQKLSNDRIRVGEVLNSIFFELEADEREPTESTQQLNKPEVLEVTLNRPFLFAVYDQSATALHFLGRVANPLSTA
Protocol: (§1) h-Ang-(1-12) Specificity and Cross-reactivity Assays: For specificity, a synthetic non-radiolabeled h-Ang-(1-12) standard (purity≥98%) was used. Briefly, 200 μL of the RIA buffer (50 mM PBS, 25 mM EDTA, 0.5% triton X-100, 0.05% sodium azide and 0.5% BSA, pH 7.4) containing 50 μL of mAb (1:2,000 dilution of IgG concentration 1.3 mg/mL), 50 μL of 125I-Ang-(1-12) [6-8 fmoles/tube, purity>99%] and 50 μL of different concentrations of non-radiolabeled human Ang-(1-12) peptide (0 to 10,000 fmol/0.2 mL RIA tube) were combined and the RIA tubes were incubated overnight for 20-22 hours at 4° C. At the end of incubation period, 50 μL of 1% γ-globulin were added, mixed, and the bound/free (B/Bo) forms of h-Ang-(1-12) were then separated by precipitating the bound (B) fraction with 200 μL of 23% polyethylene glycol (PEG). The bound and unbound (Bo) traces were separated by centrifuging the tubes at 3,000 rpm for 30 min at 4° C. The radioactivity corresponding to the antibody-bound antigen in the precipitate were measured in a PerkinElmer Wizard2 Gamma Counter. The binding data were analyzed and graphed using a statistical program (GraphPad Prism 8). To examine the cross-reactivity of the mAb with human and rat AGT or AGT-derived angiotensin peptides, several fold higher concentrations (AGT up to 10,000 fmol and angiotensin peptides up to 5,000 fmol) were used. Briefly, in a total of 200 μL of RIA buffer we added 50 μL of h-Ang-(1-12) mAb (1:2,000 dilution), 50 μL of ¹²⁵I-Ang-(1-12) and 50 μL of non-radiolabeled angiotensin peptides [Ang I, ([…]; SEQ ID NO:20); Ang-(1-9), ([…]; SEQ ID NO:23); Ang II, ([…]; SEQ ID NO:21); Ang-(1-7), (DRVYIHP; SEQ ID NO:22) and rat Ang-(1-12), ([…]; SEQ ID NO:24)] or purified AGT protein (10,000 fmol per RIA tube) and after mixing the contents, the RIA tubes were incubated overnight (20-22 hours at 4° C.) and processed as described above.

[2] = target: T2, purified rat angiotensinogen (AGT) protein (rat, UniProt P01015 25-477)
T2 construct: also called rat AGT
T2 sequence (looked up): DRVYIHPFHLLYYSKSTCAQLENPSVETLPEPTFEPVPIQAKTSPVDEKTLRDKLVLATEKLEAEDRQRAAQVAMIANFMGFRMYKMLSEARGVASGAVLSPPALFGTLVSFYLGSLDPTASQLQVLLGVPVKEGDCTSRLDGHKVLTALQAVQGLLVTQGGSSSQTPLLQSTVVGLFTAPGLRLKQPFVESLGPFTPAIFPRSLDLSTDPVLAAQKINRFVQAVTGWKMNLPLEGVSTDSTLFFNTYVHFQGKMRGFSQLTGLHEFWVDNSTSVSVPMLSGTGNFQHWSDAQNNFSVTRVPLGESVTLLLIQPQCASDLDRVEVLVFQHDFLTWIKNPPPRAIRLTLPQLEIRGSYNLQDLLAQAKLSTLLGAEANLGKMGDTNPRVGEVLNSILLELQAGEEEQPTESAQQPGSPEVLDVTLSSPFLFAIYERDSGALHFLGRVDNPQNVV
Protocol: as §1

[3] = target: Ang-(1-9)
Protocol: as §1

[4] = target: T3, Angiotensin-(1-7)
T3 construct: also called Ang-(1-7)
T3 peptide: DRVYIHP
Protocol: as §1

B1: h-Ang-(1-12) monoclonal antibody, Clone# 14B3 (Protein L purified mAb IgG) (antibody, V domains shown)
VH: DVQLQESGPGLVKPSQSLSLTCTVNGYSITSDFAWNWIRQFPGNKLEWMGYISYSGNTYYNPSLKSRISITRDTSKNQFFLQLNSVTTEDTATYYCARGSYYFDYWGQGTTLTVSS
VL: DIVMSQSPSSLAVSAGEKVTMSCKSSQSLLNSRTRKNYLAWYQQKPGQSPKLLIYWASTRESGVPDRFTGSGSGTDFTLTISSVQAEDLAVYYCKQSYNLRTFGGGTKLEIK
notes: also called Ang-(1-12)-mAb; h-Ang-(1-12) mAb
Q: Does B1 bind [1]?
A: Result: no binding (tested: AGT up to 10,000 fmol)

Q: Does B1 bind [2]?
A: Result: no binding (tested: AGT up to 10,000 fmol)

Q: Does B1 bind [3]?
A: Result: no binding (tested: angiotensin peptides up to 5,000 fmol)

Q: Does B1 bind [4]?
A: Result: no binding (tested: angiotensin peptides up to 5,000 fmol)

Reference: US20220306756A1 (WAKE FOREST UNIVERSITY HEALTH SCIENCES, published 2022)
